{"source": "IntAct's records for PubMed 18680311", "target": "sh3k1_human SH3KBP1 (UniProt Q96B97)"}
{"substance": "Polyubiquitin-C (Homo sapiens) (from UniProt P0CG48) K6E", "values": [{"measurement": "effect of a mutation on the interaction", "result": "decreasing interaction"}]}
